How the values were obtained:
[1] = system: metastatic colorectal cancer; settings: unconjugated antibody, early phase II trial; cited from earlier work
[2] = molecular target: T1, FAP (Homo sapiens, UniProt Q12884); settings: cited from earlier work
T1 sequence (Q12884 1-760): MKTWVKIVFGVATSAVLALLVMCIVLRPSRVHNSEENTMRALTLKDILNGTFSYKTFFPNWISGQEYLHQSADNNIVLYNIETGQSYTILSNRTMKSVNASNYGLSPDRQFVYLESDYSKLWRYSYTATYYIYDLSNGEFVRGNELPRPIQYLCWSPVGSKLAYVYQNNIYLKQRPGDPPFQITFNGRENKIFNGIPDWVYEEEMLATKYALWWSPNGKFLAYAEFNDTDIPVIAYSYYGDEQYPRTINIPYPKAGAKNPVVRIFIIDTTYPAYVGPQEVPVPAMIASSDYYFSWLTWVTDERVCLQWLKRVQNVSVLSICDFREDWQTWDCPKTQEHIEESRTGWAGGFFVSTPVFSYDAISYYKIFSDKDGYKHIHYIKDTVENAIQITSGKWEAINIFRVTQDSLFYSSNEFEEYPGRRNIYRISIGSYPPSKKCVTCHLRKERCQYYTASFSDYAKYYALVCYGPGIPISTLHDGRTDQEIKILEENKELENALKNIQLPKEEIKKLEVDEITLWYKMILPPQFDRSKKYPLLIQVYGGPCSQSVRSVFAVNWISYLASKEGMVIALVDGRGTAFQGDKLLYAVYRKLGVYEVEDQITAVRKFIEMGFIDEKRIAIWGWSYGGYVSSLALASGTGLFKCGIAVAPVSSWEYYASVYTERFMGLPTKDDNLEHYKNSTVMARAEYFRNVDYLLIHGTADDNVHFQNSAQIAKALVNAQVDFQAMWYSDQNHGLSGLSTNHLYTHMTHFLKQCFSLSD

[3] = human, in vivo; cited from earlier work
[4] = molecular target: T2, captured FAP (sFAP) (Homo sapiens, UniProt Q12884); assay: Capture ELISA, FAP captured via his-tag with coated anti-His antibody; assay type: binding; settings: non-linear regression
T2 sequence (Q12884 1-760): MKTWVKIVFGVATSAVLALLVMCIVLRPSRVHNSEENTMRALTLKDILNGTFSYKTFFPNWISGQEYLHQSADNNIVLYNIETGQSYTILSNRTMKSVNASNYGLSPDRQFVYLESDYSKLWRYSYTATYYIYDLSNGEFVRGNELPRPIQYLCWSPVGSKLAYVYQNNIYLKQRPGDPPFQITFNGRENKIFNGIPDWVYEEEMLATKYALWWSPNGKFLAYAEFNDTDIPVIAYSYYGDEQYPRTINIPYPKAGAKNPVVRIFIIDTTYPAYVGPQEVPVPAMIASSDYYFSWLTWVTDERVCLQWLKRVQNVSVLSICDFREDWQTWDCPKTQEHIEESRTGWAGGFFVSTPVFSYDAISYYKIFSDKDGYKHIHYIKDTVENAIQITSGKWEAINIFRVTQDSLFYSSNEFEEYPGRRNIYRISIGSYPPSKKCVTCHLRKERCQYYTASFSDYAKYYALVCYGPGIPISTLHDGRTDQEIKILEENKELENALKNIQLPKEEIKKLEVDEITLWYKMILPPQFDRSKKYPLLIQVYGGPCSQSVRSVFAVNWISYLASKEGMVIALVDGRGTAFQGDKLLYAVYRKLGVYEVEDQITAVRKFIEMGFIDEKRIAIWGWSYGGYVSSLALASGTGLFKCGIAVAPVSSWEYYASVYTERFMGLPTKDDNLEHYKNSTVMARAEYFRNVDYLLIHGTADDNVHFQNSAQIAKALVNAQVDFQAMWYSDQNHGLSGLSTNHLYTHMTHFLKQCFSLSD
Description: (§1) ELISA assays were performed with varying antibody concentrations to validate the binding of the exemplary antibodies of the present invention to FAP and to be able to determine their half maximal effective concentration (EC50). For the exemplary recombinant human NI-206.82C2, NI-206.59B4, NI-206.22F7, NI-206.27E8, NI-206.12G4 and NI-206.17A6 antibodies, 96-well microplates (Costar, Corning, USA) were coated with FAP, with a mixture of the 3 peptides or with BSA (Sigma-Aldrich, Buchs, Switzerland) diluted to a concentration of 5 μg/ml in carbonate ELISA coating buffer (15 mM Na2CO3, 35 mM NaHCO3, pH 9.4) for the direct ELISA. For the capture ELISA, the microplates were coated with mouse anti-His monoclonal antibody (Clontech) diluted to a concentration of 3 μg/ml in PBS, the plates were then blocked, FAP or BSA were diluted to a concentration of 2 μg/ml in PBS and added to the plates to be captured. The binding efficiency of the antibodies was then tested. The exemplary NI-206.82C2 antibody specifically and strongly binds to the captured FAP and less efficiently to the directly coated FAP. The exemplary NI-206.59B4 antibody specifically, strongly and similarly binds to the captured FAP and to the directly coated FAP.
(§2) The EC50 values were estimated by a non-linear regression using GraphPad Prism (San Diego, USA) software. […] The binding of NI-206.12G4 towards sFAP was not tested.

[5] = molecular target: T3, directly coated FAP (FAP) (Homo sapiens, UniProt Q12884); assay: Direct ELISA, FAP directly coated; assay type: binding; settings: non-linear regression
T3 sequence (Q12884 1-760): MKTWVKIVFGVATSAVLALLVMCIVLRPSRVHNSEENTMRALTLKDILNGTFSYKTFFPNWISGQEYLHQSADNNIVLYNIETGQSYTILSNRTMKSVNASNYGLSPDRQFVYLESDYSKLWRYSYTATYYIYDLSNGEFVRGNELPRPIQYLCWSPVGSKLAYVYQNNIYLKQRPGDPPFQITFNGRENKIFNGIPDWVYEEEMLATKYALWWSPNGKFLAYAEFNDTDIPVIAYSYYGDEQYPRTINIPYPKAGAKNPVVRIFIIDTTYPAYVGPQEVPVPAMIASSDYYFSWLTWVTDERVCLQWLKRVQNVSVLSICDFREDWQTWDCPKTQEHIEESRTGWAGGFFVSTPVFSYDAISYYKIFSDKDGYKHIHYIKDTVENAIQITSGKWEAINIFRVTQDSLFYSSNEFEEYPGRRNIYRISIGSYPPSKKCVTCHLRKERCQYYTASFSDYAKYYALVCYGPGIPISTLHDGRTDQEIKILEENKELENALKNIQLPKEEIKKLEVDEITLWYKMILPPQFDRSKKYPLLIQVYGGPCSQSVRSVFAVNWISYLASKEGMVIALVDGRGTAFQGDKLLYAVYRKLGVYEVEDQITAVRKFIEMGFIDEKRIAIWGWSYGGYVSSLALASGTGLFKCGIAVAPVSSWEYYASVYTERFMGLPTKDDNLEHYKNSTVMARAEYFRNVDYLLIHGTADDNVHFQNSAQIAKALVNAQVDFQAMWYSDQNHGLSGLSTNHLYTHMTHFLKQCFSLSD
Description: as §1, §2

Molecule | efficacy in inhibiting tumor progression [1] | inhibition of FAP [2] | patients with a change in pharmacokinetics and reduced tumor uptake [3] | EC50, binding to captured FAP (sFAP) [4] | EC50, binding to directly coated FAP (FAP) [5]
Sibrotuzumab: a humanized version of the F19 antibody that specifically binds to human FAP | lack of efficacy | not inhibitory | 4 of 26 |  | 
NI-206.22F7: recombinant human-derived monoclonal anti-FAP antibody, variable regions in FIG. 1 (antibody, V domains shown) VH: EVQLVETGGGVVQPGRSLRLSCAASGFSFSTHGMYWVRQPPGKGLEWVAVISYDGSDKKYADSVKGRFTISRDNSKNTVYLEMSSVRAEDTALYYCFCRRDAFDLWGQGTMVTVSS VL: SYVLTQPPSVSVSPGQTARITCSGDALPKKYAYWYQQKSGQAPVLVIYEDTKRPSGIPERFSGSSSGTMATLTISGAQVEDEADYYCYSTDSSGNYWVFGGGTEVTVL |  |  |  | did not show any binding | did not show any binding
